Assay results from patent US11504389.

How the values were obtained:
Assay in all cases: cell_activity
[1] = tested on: ZFP SBS#57890 (synthetic); settings: human iPSC neurons, 3E5 VG/cell; poor mismatch tolerance
[2] = tested on: ZFP SBS#52389 (synthetic); settings: AAV2/9 CMV-52389-KRAB, 3E5 VG/cell, mouse cortical neurons
[3] = tested on: ZFP SBS#57880 (synthetic); settings: human iPSC neurons, 3E5 VG/cell
[4] = tested on: ZFP SBS#52322 (synthetic); settings: mouse hippocampus in vivo, mean MAPT mRNA reduction
[5] = tested on: ZFP SBS#52366 (synthetic); settings: human iPSC neurons, 3E5 VG/cell

“ACCCACCAGCTCCGGCAC (double strand) [57890 human MAPT site]” showed an activity [1] of 45 % repression.

“CCGTTGCGCCTGATTGATGCCCAGCTCC (double strand) [52389 target]” showed an activity [2] of 98 % repression.

“GCAGTCACCGCCACCCACC (double strand) [57880 human MAPT site]” was tested, and the activity [3] was 95 % repression.

“GTGGCGGAGACTGAGAGCGCGCGCGGCC (double strand) [52322 target]” gave an activity [4] of 66 % repression.

In the case of “TCTGTCGACTATCAG (double strand) [52366 human MAPT site]”, the activity [5] is reported as 87 % repression.
